Results published in PMC4234509.

Key:
[1] = target: EvpP (E. tarda virulent protein P), wild type, 6x His-tagged (Edwardsiella tarda PPD130/91); test: dynamic light scattering; 50 µM protein, 20°C, DynaPro; 11 readings
[2] = target: EvpP (E. tarda virulent protein P), wild type, 6x His-tagged (Edwardsiella tarda PPD130/91); test: cross-linking; glutaraldehyde, room temperature, different time periods, SDS-PAGE
[3] = target: EvpP (E. tarda virulent protein P), wild type, 6x His-tagged (Edwardsiella tarda PPD130/91); test: SEC; Superdex 75 HiLoad 16/60; EvpP eluted at ~72 ml, standards ovalbumin (44 kDa) at 63 ml and myoglobulin (17 kDa) at 83 ml
[4] = target: trypsin-digested EvpP (associated 10-kDa and 4-kDa fragments) (Edwardsiella tarda PPD130/91); test: SEC; EvpP after limited trypsin digestion (protein:trypsin 100:1), HiLoad 16/60 Superdex 75

Row | Substance | stoichiometry N [1] | stoichiometry N [2] | stoichiometry N [3] | stoichiometry N [4]
1 | EvpP (E. tarda virulent protein P), wild type, 6x His-tagged (natural protein) | 2 | 2 | 2 | 
2 | trypsin-digested EvpP (associated 10-kDa and 4-kDa fragments) (complex) |  |  |  | 2
